Measured values: US20200270347A1 (Hoffmann-La Roche, published 2020)

B1: TYRP1 TCB CD3opt (bispecific antibody, human IgG1, kappa, L234A L235A)
heavy 1: not shown
heavy 2: QVQLVQSGAEVKKPGASVKVSCKASGFNIKDYFLHWVRQAPGQGLEWMGWINPDNGNTVYAQKFQGRVTMTADTSTSTVYMELSSLRSEDTAVYYCTRRDYTYEKAALDYWGQGTLVTVSSASTKGPSVFPLAPSSKSTSGGTAALGCLVEDYFPEPVTVSWNSGALTSGVHTFPAVLQSSGLYSLSSVVTVPSSSLGTQTYICNVNHKPSNTKVDEKVEPKSCDKTHTCPPCPAPEAAGGPSVFLFPPKPKDTLMISRTPEVTCVVVDVSHEDPEVKFNWYVDGVEVHNAKTKPREEQYNSTYRVVSVLTVLHQDWLNGKEYKCKVSNKALGAPIEKTISKAKGQPREPQVCTLPPSRDELTKNQVSLSCAVKGFYPSDIAVEWESNGQPENNYKTTPPVLDSDGSFFLVSKLTVDKSRWQQGNVFSCSVMHEALHNHYTQKSLSLSP
light 1: DIQMTQSPSSLSASVGDRVTITCRASGNIYNYLAWYQQKPGKVPKLLIYDAKTLADGVPSRFSGSGSGTDFTLTISSLQPEDVATYYCQHFWSLPFTFGQGTKLEIKRTVAAPSVFIFPPSDRKLKSGTASVVCLLNNFYPREAKVQWKVDNALQSGNSQESVTEQDSKDSTYSLSSTLTLSKADYEKHKVYACEVTHQGLSSPVTKSFNRGEC
light 2: EVQLLESGGGLVQPGGSLRLSCAASGFQFSSYAMNWVRQAPGKGLEWVSRIRSKYNNYATYYADSVKGRFTISRDDSKNTLYLQMNSLRAEDTAVYYCVRHTTFPSSYVSYYGYWGQGTLVTVSSASVAAPSVFIFPPSDEQLKSGTASVVCLLNNFYPREAKVQWKVDNALQSGNSQESVTEQDSKDSTYSLSSTLTLSKADYEKHKVYACEVTHQGLSSPVTKSFNRGEC
notes: two TYRP1 Fabs, one CD3opt crossover Fab
B2: TYRP1 TCB CD3orig (bispecific antibody, human IgG1, kappa, L234A L235A)
heavy 1: not shown
heavy 2: QVQLVQSGAEVKKPGASVKVSCKASGFNIKDYFLHWVRQAPGQGLEWMGWINPDNGNTVYAQKFQGRVTMTADTSTSTVYMELSSLRSEDTAVYYCTRRDYTYEKAALDYWGQGTLVTVSSASTKGPSVFPLAPSSKSTSGGTAALGCLVEDYFPEPVTVSWNSGALTSGVHTFPAVLQSSGLYSLSSVVTVPSSSLGTQTYICNVNHKPSNTKVDEKVEPKSCDKTHTCPPCPAPEAAGGPSVFLFPPKPKDTLMISRTPEVTCVVVDVSHEDPEVKFNWYVDGVEVHNAKTKPREEQYNSTYRVVSVLTVLHQDWLNGKEYKCKVSNKALGAPIEKTISKAKGQPREPQVCTLPPSRDELTKNQVSLSCAVKGFYPSDIAVEWESNGQPENNYKTTPPVLDSDGSFFLVSKLTVDKSRWQQGNVFSCSVMHEALHNHYTQKSLSLSP
light 1: DIQMTQSPSSLSASVGDRVTITCRASGNIYNYLAWYQQKPGKVPKLLIYDAKTLADGVPSRFSGSGSGTDFTLTISSLQPEDVATYYCQHFWSLPFTFGQGTKLEIKRTVAAPSVFIFPPSDRKLKSGTASVVCLLNNFYPREAKVQWKVDNALQSGNSQESVTEQDSKDSTYSLSSTLTLSKADYEKHKVYACEVTHQGLSSPVTKSFNRGEC
light 2: EVQLLESGGGLVQPGGSLRLSCAASGFTFSTYAMNWVRQAPGKGLEWVSRIRSKYNNYATYYADSVKGRFTISRDDSKNTLYLQMNSLRAEDTAVYYCVRHGNFGNSYVSWFAYWGQGTLVTVSSASVAAPSVFIFPPSDEQLKSGTASVVCLLNNFYPREAKVQWKVDNALQSGNSQESVTEQDSKDSTYSLSSTLTLSKADYEKHKVYACEVTHQGLSSPVTKSFNRGEC
notes: 2+1 IgG CrossFab, inverted, with charge modifications
B3: CD3opt human IgG1 PGLALA (antibody, V domains shown)
VH: EVQLLESGGGLVQPGGSLRLSCAASGFQFSSYAMNWVRQAPGKGLEWVSRIRSKYNNYATYYADSVKGRFTISRDDSKNTLYLQMNSLRAEDTAVYYCVRHTTFPSSYVSYYGYWGQGTLVTVSS
VL: QAVVTQEPSLTVSPGGTVTLTCGSSTGAVTTSNYANWVQEKPGQAFRGLIGGTNKRAPGTPARFSGSLLGGKAALTLSGAQPEDEAEYYCALWYSNLWVFGGGTKLTVLR
notes: Human IgG1 format with P329G L234A L235A (PGLALA); also called CD3opt IgG PGLALA
B4: CD3orig human IgG1 PGLALA (antibody, V domains shown)
VH: not shown
VL: QAVVTQEPSLTVSPGGTVTLTCGSSTGAVTTSNYANWVQEKPGQAFRGLIGGTNKRAPGTPARFSGSLLGGKAALTLSGAQPEDEAEYYCALWYSNLWVFGGGTKLTVLR
notes: Human IgG1 format with P329G L234A L235A (PGLALA) in the Fc by the text; also called CD3orig IgG PGLALA
B5: TYRP1 IgG (antibody, V domains shown)
VH: QVQLVQSGAEVKKPGASVKVSCKASGFNIKDYFLHWVRQAPGQGLEWMGWINPDNGNTVYAQKFQGRVTMTADTSTSTVYMELSSLRSEDTAVYYCTRRDYTYEKAALDYWGQGTLVTVSS
VL: DIQMTQSPSSLSASVGDRVTITCRASGNIYNYLAWYQQKPGKVPKLLIYDAKTLADGVPSRFSGSGSGTDFTLTISSLQPEDVATYYCQHFWSLPFTFGQGTKLEIK
notes: IgG format; constant regions not specified
B6: TYRP1 Fab fragment (humanized TA99 TYRP1 binder) (Fab, V domains shown)
VH: QVQLVQSGAEVKKPGASVKVSCKASGFNIKDYFLHWVRQAPGQGLEWMGWINPDNGNTVYAQKFQGRVTMTADTSTSTVYMELSSLRSEDTAVYYCTRRDYTYEKAALDYWGQGTLVTVSS
VL: DIQMTQSPSSLSASVGDRVTITCRASGNIYNYLAWYQQKPGKVPKLLIYDAKTLADGVPSRFSGSGSGTDFTLTISSLQPEDVATYYCQHFWSLPFTFGQGTKLEIK
notes: Fab prepared by plasmin digestion of the corresponding antibody; also called TYRP1 Fab fragments
B7: EGFRvIII antibody P063.056 IgG1 PGLALA (antibody, V domains shown)
VH: EVQLVQSGAEVKKPGESLKISCKGSGYSFDSYWIAWVRQMPGKGLEWMGVIHPYDSDTRYSPSFQGQVTISADKSISTAYLQWSSLKASDTAMYYCARVSRSSYAFDYWGQGTLVTVSS
VL: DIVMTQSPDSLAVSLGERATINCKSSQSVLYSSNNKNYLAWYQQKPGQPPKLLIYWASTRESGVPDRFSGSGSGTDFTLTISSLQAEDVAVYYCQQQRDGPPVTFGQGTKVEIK
notes: Anti-EGFRvIII PGLALA IgG (human IgG1)
B8: EGFRvIII antibody P065.036 IgG1 PGLALA (antibody, V domains shown)
VH: EVQLVQSGAEVKKPGESLKISCKGSGYSFDSYWIAWVRQMPGKGLEWMGVIHPYDSDTRYSPSFQGQVTISADKSISTAYLQWSSLKASDTAMYYCARVSRSSYALDYWGQGTLVTVSS
VL: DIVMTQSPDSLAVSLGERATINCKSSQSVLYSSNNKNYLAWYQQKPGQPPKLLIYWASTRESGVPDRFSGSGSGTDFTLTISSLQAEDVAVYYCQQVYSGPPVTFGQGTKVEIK
notes: as for B7
B9: EGFRvIII antibody P064.078 IgG1 PGLALA (antibody, V domains shown)
VH: EVQLVQSGAEVKKPGESLKISCKGSGYSFDSYWIAWVRQMPGKGLEWMGVIHPYDSDTRYSPSFQGQVTISADKSISTAYLQWSSLKASDTAMYYCARVSRLSYALDYWGQGTLVTVSS
VL: not shown
notes: as for B7

Key:
[1] = biological target: T1, recombinant TYRP1 (Sino Biologicals) (human, UniProt P17643 25-477, limits assumed); assay: SPR, relative active concentration as for CD3, with recombinant TYRP1 (Sino Biologicals) as antigen; sample: unstressed
T1 construct: Bought protein; also called human TYRP1

[2] = biological target: TYRP1 on the melanoma cell line M150543 (human, UniProt P17643 25-537); assay: cell-based or functional assay
[3] = biological target: T1, recombinant TYRP1 (Sino Biologicals); assay: SPR, relative active concentration as for CD3, with recombinant TYRP1 (Sino Biologicals) as antigen; sample: 14d pH 7.4, 37°C
[4] = biological target: T1, recombinant TYRP1 (Sino Biologicals); assay: SPR, relative active concentration as for CD3, with recombinant TYRP1 (Sino Biologicals) as antigen; sample: 14d pH 6.0, 40°C
[5] = biological target: T2, heterodimer of human CD3 delta and CD3 epsilon ectodomains fused to a human Fc domain with knob-into-hole … (human); assay: SPR, TCB captured with anti-PGLALA antibody, CD3 antigen as analyte, 1:1 Langmuir
T2 construct: Each entry is the whole fusion chain (ectodomain, stalk, Fc, Avi-tag); also called recombinant CD3; recombinant human CD3

[6] = biological target: T3, heterodimer of cynomolgus CD3 delta and CD3 epsilon ectodomains fused to a human Fc domain with … (cynomolgus); assay: as above
T3 construct: Each entry is the whole fusion chain; also called Cynomolgus CD3 epsilon stalk-Fc(knob)-Avi / Cynomolgus CD3 delta stalk-Fc(hole)-Avi

[7] = biological target: T2, heterodimer of human CD3 delta and CD3 …; assay: SPR, relative active concentration after stress
[8] = biological target: T4, human CD3 expressed on Jurkat NFAT reporter cells (human, UniProt P07766 23-207); assay: flow cytometry on Jurkat NFAT cells, PE-labelled anti-human Fc secondary antibody
T4 construct: CD3 complex on cells; also called CD3 on Jurkat cells; CD3 expressing cells
T4 sequence (P07766 23-207 limits assumed): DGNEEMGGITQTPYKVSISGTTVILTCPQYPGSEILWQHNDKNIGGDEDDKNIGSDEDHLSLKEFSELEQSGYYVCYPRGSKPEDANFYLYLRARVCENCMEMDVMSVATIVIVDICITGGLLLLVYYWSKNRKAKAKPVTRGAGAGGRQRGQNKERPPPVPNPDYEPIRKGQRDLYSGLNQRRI

[9] = biological target: T5, Human TYRP1 ECD-Fc(knob)-Avi / Fc(hole) (human, UniProt P01857 104-328 = IgG part); assay: SPR, TYRP1 ECD-Fc captured with anti-PGLALA antibody, Fab as analyte, 1:1 Langmuir; human TYRP1
T5 construct: Fc with knob-into-hole and PG LALA modifications, C-terminal Avi-tag; also called monomeric fusion of the human TYRP1 extracellular domain to a human Fc-domain

[10] = biological target: Mouse TYRP1 ECD-Fc(knob)-Avi / Fc(hole) (mouse, UniProt P01857 104-328 = IgG part); assay: SPR, TYRP1 ECD-Fc captured with anti-PGLALA antibody, Fab as analyte, 1:1 Langmuir; mouse TYRP1
[11] = biological target: Cynomolgus TYRP1 ECD-Fc(knob)-Avi / Fc(hole) (cynomolgus, UniProt P01857 104-328 = IgG part); assay: SPR, TYRP1 ECD-Fc captured with anti-PGLALA antibody, Fab as analyte, 1:1 Langmuir; cynomolgus TYRP1
[12] = biological target: T6, wild-type EGFR on MKN-45 cells (human, UniProt P00533 25-1210); assay: flow cytometry on MKN-45 cells (wild-type EGFR), IgG PGLALA
T6 construct: MKN-45 is the wild-type EGFR line used to exclude crossreactivity; also called EGFRwt

EGFRvIII-ECD avi his [13] = biological target: T7, EGFRvIII-ECD avi his (human); assay: SPR, PGLALA IgG captured with anti-PGLALA antibody, EGFRvIII-ECD avi his as analyte, 1:1 Langmuir, 25° C.
T7 construct: Extracellular domain of human EGFRvIII fused to an Avi-tag and a His-tag at the C-terminus; the entry is the whole construct; also called recombinant EGFRvIII; EGFRvIII antigen

[14] = biological target: EGFRwt ECD antigen (His-tagged, captured with anti-His) (human, UniProt P00533 25-645); assay: SPR, ECD antigen captured with anti-His, single injection of antibody at 500 nM
EGFRvIII-ECD avi his [15] = biological target: T7, EGFRvIII-ECD avi his; assay: as above
[16] = biological target: T8, EGFRvIII expressed on the cell surface (CHO-EGFRvIII, DK-MG, U87MG-EGFRvIII cells) (human, UniProt P00533 298-1210); assay: flow cytometry on U87MG-EGFRvIII cells, IgG PGLALA
T8 construct: The cell line of each result is named under assay; Species is stated for the U87 transfectant (human EGFRvIII protein) and the entry; also called EGFRvIII positive cells

Row | Binder | Tyrp1 Binding Activity (%) [1] [%] | Tyrp1 Binding Activity (%) [3] [%] | Tyrp1 Binding Activity (%) [4] [%] | Kd (EGFRvIII-ECD avi his [13]) [nM] | response units [14] [RU] | response units (EGFRvIII-ECD avi his [15]) [RU] | other results
1 | B1 | 100 | 101 | 101 |  |  |  | EC50 of tumor cell killing at 48 h (LDH release), PBMC donor 1 [2]: 0.31 nM; EC50 of tumor cell killing at 48 h (LDH release), PBMC donor 2 [2]: 0.03 nM; EC50 of tumor cell killing at 48 h (LDH release), PBMC donor 3 [2]: 0.08 nM; Kd [5]: 50 nM; Kd [6]: 20 nM; binding activity to CD3 after 2 weeks at pH 7.4, 37° C., relative to 2 weeks at pH 6, -80° C. [7]: > 90%
2 | B2 | 100 | 103 | 98 |  |  |  | EC50 of tumor cell killing at 48 h (LDH release), PBMC donor 1 [2]: 0.44 nM; EC50 of tumor cell killing at 48 h (LDH release), PBMC donor 2 [2]: 0.05 nM; EC50 of tumor cell killing at 48 h (LDH release), PBMC donor 3 [2]: 0.14 nM; Kd [5]: 50 nM
3 | B3 |  |  |  |  |  |  | binding activity to CD3 after 2 weeks at pH 7.4, 37° C., relative to 2 weeks at pH 6, -80° C. [7]: > 90%; EC50 (read off the curve) [8]: ~0.5 nM
4 | B4 |  |  |  |  |  |  | EC50 (read off the curve) [8]: ~0.8 nM
5 | B5 | 100 | 101 | 97 |  |  |  | 
6 | B6 |  |  |  |  |  |  | Kd [9]: 0.13 nM; Kd [10]: 0.53 nM; Kd [11]: 0.18 nM
7 | B7 |  |  |  | 10 | < 5 | > 50 | binding result [12]: no binding (tested: about 140 nM)
8 | B8 |  |  |  | 10 | > 5 | > 50 | 
9 | B9 |  |  |  | 15 | > 5 | > 50 | EC50 (read off the curve) [16]: ~3 nM
